This experiment concerns the target KARS1 (human), Q15046. Briefly: RNA immunoprecipitation with qRT-PCR. To be noted: remark: other sources report otherwise. A general note: Quantitative PCR measures a nucleic acid by following its amplification.

Sequence of KARS1 (human), Q15046 (Q15046 whole entry): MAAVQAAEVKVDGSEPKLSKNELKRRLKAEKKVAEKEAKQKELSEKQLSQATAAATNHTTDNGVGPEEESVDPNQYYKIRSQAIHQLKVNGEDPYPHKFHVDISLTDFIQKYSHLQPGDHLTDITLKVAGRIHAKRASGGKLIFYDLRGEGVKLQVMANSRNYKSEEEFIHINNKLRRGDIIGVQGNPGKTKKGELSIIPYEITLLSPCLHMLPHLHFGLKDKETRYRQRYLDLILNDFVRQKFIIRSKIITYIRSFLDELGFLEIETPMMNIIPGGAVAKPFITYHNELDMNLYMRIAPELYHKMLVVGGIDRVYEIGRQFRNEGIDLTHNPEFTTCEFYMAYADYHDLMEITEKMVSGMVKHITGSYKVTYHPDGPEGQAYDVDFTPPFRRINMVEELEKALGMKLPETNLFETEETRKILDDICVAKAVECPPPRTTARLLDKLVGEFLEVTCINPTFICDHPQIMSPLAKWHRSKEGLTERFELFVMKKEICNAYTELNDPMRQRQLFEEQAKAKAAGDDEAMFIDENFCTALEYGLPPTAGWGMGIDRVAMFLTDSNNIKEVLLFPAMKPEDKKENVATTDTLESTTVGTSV

B1: AIMP1, Q12904 (natural protein)
chain: MANNDAVLKRLEQKGAEADQIIEYLKQQVSLLKEKAILQATLREEKKLRVENAKLKKEIEELKQELIQAEIQNGVKQIPFPSGTPLHANSMVSENVIQSTAVTTVSSGTKEQIKGGTGDEKKAKEKIEKKGEKKEKKQQSIAGSADSKPIDVSRLDLRIGCIITARKHPDADSLYVEEVDVGEIAPRTVVSGLVNHVPLEQMQNRMVILLCNLKPAKMRGVLSQAMVMCASSPEKIEILAPPNGSVPGDRITFDAFPGEPDKELNPKKKIWEQIQPDLHTNDECVATYKGVPFEVKGKGVCRAQTMSNSGIK
With B1, the fold enrichment of mRNA (anti-FLAG RIP over IgG) was 9.7 fold.

For the origin of these results see publication PMC9457175.
